# Experimental data as given in article PMC8944867.
# Target: HOIP UBA-RBR-LDD/HOIL-1L UBL complex (human) (UniProt Q96EP0)
# Experiment: ITC
# Chain of HOIP UBA-RBR-LDD/HOIL-1L UBL complex (human) (Q96EP0 whole entry, chain 1 of 2): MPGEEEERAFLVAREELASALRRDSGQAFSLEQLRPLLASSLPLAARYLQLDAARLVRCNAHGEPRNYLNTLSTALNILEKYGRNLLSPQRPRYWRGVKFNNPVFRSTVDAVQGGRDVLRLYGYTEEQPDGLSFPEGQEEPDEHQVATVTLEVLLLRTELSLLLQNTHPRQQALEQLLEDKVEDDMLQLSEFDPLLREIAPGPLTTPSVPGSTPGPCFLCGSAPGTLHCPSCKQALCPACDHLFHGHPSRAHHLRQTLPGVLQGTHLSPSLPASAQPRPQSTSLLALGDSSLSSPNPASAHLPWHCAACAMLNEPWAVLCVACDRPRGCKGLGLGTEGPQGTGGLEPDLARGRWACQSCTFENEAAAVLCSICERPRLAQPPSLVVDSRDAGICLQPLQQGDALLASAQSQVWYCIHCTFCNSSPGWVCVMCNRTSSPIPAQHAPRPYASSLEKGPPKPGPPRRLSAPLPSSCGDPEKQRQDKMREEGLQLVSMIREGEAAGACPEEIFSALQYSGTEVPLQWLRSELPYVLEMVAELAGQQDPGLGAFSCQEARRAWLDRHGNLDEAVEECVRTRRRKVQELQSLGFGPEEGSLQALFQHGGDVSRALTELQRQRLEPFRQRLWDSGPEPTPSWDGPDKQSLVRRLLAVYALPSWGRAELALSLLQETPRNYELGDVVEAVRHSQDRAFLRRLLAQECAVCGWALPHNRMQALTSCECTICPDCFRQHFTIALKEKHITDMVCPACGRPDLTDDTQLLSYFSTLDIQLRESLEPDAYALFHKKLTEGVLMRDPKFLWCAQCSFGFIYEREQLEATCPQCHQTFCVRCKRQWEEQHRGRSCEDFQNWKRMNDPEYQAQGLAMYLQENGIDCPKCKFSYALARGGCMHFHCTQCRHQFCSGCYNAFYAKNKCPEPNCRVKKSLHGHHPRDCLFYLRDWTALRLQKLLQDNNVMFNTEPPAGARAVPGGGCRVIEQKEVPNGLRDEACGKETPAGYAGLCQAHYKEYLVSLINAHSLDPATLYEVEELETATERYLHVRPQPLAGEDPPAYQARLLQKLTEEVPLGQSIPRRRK
# Chain of HOIP UBA-RBR-LDD/HOIL-1L UBL complex (human) (Q9BYM8 53-135, chain 2 of 2, further chain): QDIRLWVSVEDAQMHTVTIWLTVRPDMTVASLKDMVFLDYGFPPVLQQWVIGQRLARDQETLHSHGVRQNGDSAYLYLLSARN
substance,measurement,value
IpaH1.4 LRR domain (from UniProt A0A0H2USG1 38-283) (domain or fragment),Kd,2300 nM
